Substrate: CC(=O)C(=O)O
Assay: purified protein
Conditions: pH 8.0; 25.0 °C

B1: MtPC (Mycobacterium tuberculosis pyruvate carboxylase) (Mycobacterium tuberculosis H37Rv) (protein)
chain: MFSKVLVANRGEIAIRAFRAAYELGVGTVAVYPYEDRNSQHRLKADESYQIGDIGHPVHAYLSVDEIVATARRAGADAIYPGYGFLSENPDLAAACAAAGISFVGPSAEVLELAGNKSRAIAAAREAGLPVLMSSAPSASVDELLSVAAGMPFPLFVKAVAGGGGRGMRRVGDIAALPEAIEAASREAESAFGDPTVYLEQAVINPRHIEVQILADNLGDVIHLYERDCSVQRRHQKVIELAPAPHLDAELRYKMCVDAVAFARHIGYSCAGTVEFLLDERGEYVFIEMNPRVQVEHTVTEEITDVDLVASQLRIAAGETLEQLGLRQEDIAPHGAALQCRITTEDPANGFRPDTGRISALRTAGGAGVRLDGSTNLGAEISPYFDSMLVKLTCRGRDLPTAVSRARRAIAEFRIRGVSTNIPFLQAVLDDPDFRAGRVTTSFIDERPQLLTARASADRGTKILNFLADVTVNNPYGSRPSTIYPDDKLPDLDLRAAPPAGSKQRLVKLGPEGFARWLRESAAVGVTDTTFRDAHQSLLATRVRTSGLSRVAPYLARTMPQLLSVECWGGATYDVALRFLKEDPWERLATLRAAMPNICLQMLLRGRNTVGYTPYPEIVTSAFVQEATATGIDIFRIFDALNNIESMRPAIDAVRETGSAIAEVAMCYTGDLTDPGEQLYTLDYYLKLAEQIVDAGAHVLAIKDMAGLLRPPAAQRLVSALRSRFDLPVHLHTHDTPGGQLASYVAAWHAGADAVDGAAAPLAGTTSQPALSSIVAAAAHTEYDTGLSLSAVCALEPYWEALRKVYAPFESGLPGPTGRVYHHEIPGGQLSNLRQQAIALGLGDRFEEIEEAYAGADRVLGRLVKVTPTSKVVGDLALALVGAGVSADEFASDPARFGIPESVLGFLRGELGDPPGGWPEPLRTAALAGRGAARPTAQLAADDEIALSSVGAKRQATLNRLLFPSPTKEFNEHREAYGDTSQLSANQFFYGLRQGEEHRVKLERGVELLIGLEAISEPDERGMRTVMCILNGQLRPVLVRDRSIASAVPAAEKADRGNPGHIAAPFAGVVTVGVCVGERVGAGQTIATIEAMKMEAPITAPVAGTVERVAVSDTAQVEGGDLLVVVS
- Km: 2310 µM

Reference: paper doi:10.1101/2025.11.11.687647v1
